{
  "source": "the DeepSol protein solubility set",
  "data": [
    {"test": "soluble on expression in E. coli; label from the status in PepcDB or PDB records", "values": [
      {"sequence": "MKCRSKISLIAASLWLAAFSAQALEAKLKPEDLPLLVPEAQHATAAKRVTSRFTRSHYKQFNLDDQFSQAMFERYLEMLDYSRNIFTQADIDSFKAWSLQLDDQLKAGDNQIAYDLYNLSMEKRFERFQYALSLLDQEMTFDADESIELDRTKSPWPKDLKEINELWRQRVKYDALSLKLAGKEWPEIKETLDKRYNNAIKRLTQTKSEDVFQTYMNAFAREVDPHTSYLSPRNAEQFQSEMNLSLEGIGAVLQMTDDYTIIRSLVAGGPAALSKQLGEGDRIIGVGQEGEDVVDVVGWRLDDVVQLIKGPKGSKVKLLVLPEGKDAKSHVVTIVRDKIRLEDRAVKSEVIEKAGKKIGVLEVPSFYVGLAQDTEKLLAELKAKKVDGIIVDLRNNGGGALTEATALSGLFITSGPVVQVRDSYGRVNVNSDTDGSISYSGPMTVLINRYSASASEIFAAAMQDYGRAIILGENSFGKGTVQQHRSLNHIYDLFDKELGYVQYTIQKFYRIDGGSTQNKGVVPDIAYPTAIAPSETGESVEDNALPWDSIDKAKYERLNNFNTIIASLEAKHQQRVANDLEFGFIEQDIAKYRAEKDDNLLSLNEKVRKEESAKADEERLARINQRQKALGKSTYASLQDIPKDYEAPDAYLDESVNIMLDMISR", "soluble on expression in E. coli": "not soluble"},
      {"sequence": "MSFQNQFTKTTTDANLMETVHHGSAEYPFRYYYENIALFDFKCIDWHWHSELEFIYIESGNVVFDIGTVHFELNEGNGIMINSKILHRLQSSSDAIIPNFLFQPSFIAPQDSLIYKKYINPVISSSLEYLVFQPDIPWQKKALEIIKTIIAVQETEFNREIIVSMSVQQLWILLLENLTFDQFENMGAVISRTRLQLMMQYVHAHYSENITLEDIARTANISKSTALHLFQNNLKLTPVKYLINYRLTQAALLLINTEEKIATISNNTGFNNVDHFCRTFKKTYKMTPTDYRNQERAPVS", "soluble on expression in E. coli": "not soluble"},
      {"sequence": "MTDNSNIRVVVGMSGGVDSSVTALLLKEQGYDVIGVFMKNWDDTDEFGVCTATEDYKDVAAVADQIGIPYYSVNFEKEYWDRVFEYFLAEYRAGRTPNPDVMCNKEIKFKAFLDYAMTLGADYVATGHYAQVTRDENGIVHMLRGADNNKDQTYFLSQLSQEQLQKTLFPLGHLQKPEVRRIAEEAGLATAKKKDSTGICFIGEKNFKDFLGQYLPAQPGRMMTVDGRDMGEHAGLMYYTIGQRGGLGIGGQHGGDNKPWFVVGKDLSKNILYVGQGFYHDSLMSTSLTASEIHFTRDMPNEFKLECTAKFRYRQPDSKVTVYVKGNQARVVFDDLQRAITPGQAVVFYNEQECLGGGMIDQAYRDDKICQYIMAGDPLEHHHHHH", "soluble on expression in E. coli": "not soluble"},
      {"sequence": "MSLRTASVIVDLPTRQTNQPFTYLIPDDLLDFNLLGHRVRVPFGKRNLMGYVVAVGQSERSDFQLKKIESIIDEKPVLNSEMLKLSEWLSNYVFSYRVQVIQTILPNAFKPKYLKGLKIVDQVPEKIKENIFLNNQEIEFLPKNYTSEQIKVINSLIRQGKIVQTTTIQKKNKGKKVKVLSNNLNDNDIATNLNKKSLSDSQKKLLIFLSGHRDGFFQVKELAEILDISKSTILTAEKKSWLKKSEVRMTRNPVKKIAVTKTNAVELNSDQKKVFNSVESAITKNENKTFLLEGITGSGKTEVYLQLIEKTIAQGKTALLLVPEIALTPQMIRLVKSRFLDSVALLHSGLSDGERLDQWEEIRDGKIKIVIGTRSAVFSPLTNIGLIIMDEEHETNYKQEGNPRYHARDIALWRAKYHQAVTLLGSATPSLESRARAQKGIFKLLTMNHRAVSGAKLPDVSIVDMREVWQKEHADNDFSPTLLKKIEERKENHEQTILLLNRRGFSSFVMCRNCGYVPRCPNCNLSLTLHMDSHSLKCHYCGYEEAIPKKCPVCGSPQIRYVGTGTEKIETKLNSLVNGIRVARLDQDTTKRKGSLEKILRDFGKGNYDVLLGTQMVAKGLDFPDVTLVGVINADIGLNLPDFRSGEKTFQLLTQVAGRSGRAGKTGEVIIQTFNPDNYAIKLAADQNYEGFYKTEMSIRHIADYSPYYYTIQVGIDGPDQFPASRAIDEVAEFIKPKLAKETIVLGPTPKAIAKLRNRYYFQIILKYKKDPNIESTLSELQTVFGEKLPKDIYLSIDRDPVSEGHHHHHH", "soluble on expression in E. coli": "soluble"},
      {"sequence": "MLETETGRYSDTLRSALVSLDGDNAWALSESWCGTIQWICPSPYRPHHGRKNWFLGIGRFTADEQEQSDAIRYETLRSSGPGGQHVNKTDSAVRATHLASGISVKVQSERSQHANKRLARLLIAWKLEQQQQENSAALKSQRRMFHHQIERGNPRRTFTGMAFIEGLEHHHHHH", "soluble on expression in E. coli": "not soluble"},
      {"sequence": "MQQPINYIMNIMHLERDLKRLTSNWSSATGLSLNELRILVYVEQHPGIQIGDVANALNVAKASLAQNIGTLITQGWLKSQPIKQDRRLRVLTLTKAGQDRMKDVDAQLTKSLDTTPATQLADQLSALQL", "soluble on expression in E. coli": "not soluble"},
      {"sequence": "TQKPSLYRVLILNDDYTPMEFVVYVLERFFNKSREDATRIMLHVHQNGVGVCGVYTYEVAETKVAQVIDSARRHQHPLQCTMEKD", "soluble on expression in E. coli": "soluble"},
      {"sequence": "MGRLSEVFEVRERYVPQIGRPSYLLVSLPDAGLVGSISGEFLINYLNLREYGEIYSNKHLPPISHVVNGVAKSPIRLYHYDNFLLLHSWIAIPANSINHLANLVVSYAEKYGIQTIISITGVPVPNRLDLEKPTPYWVASSEDFAKELDSLNLMKKFVEGYVSGPYAPILFQSAKKLIRNLLIVVESFLDLPDPEAAAVALDILSKMLGFKVDTSSLLKEAEEIRERIKGLMQQTRQELPNYSGLRPSTYA", "soluble on expression in E. coli": "not soluble"},
      {"sequence": "KRMYNREKLRKLFDKEETPEVTGLKDNQERFFTYSIRAAHMNINTKSNIKVLKNGEETFPDIFKAMRKAESYIHIEYYMFKSDMLGRGMMDIMMEKARQGVEVRFLYDAAGSMKLARRDIMRMKQAGVDIVPFSPLKYGFFNQKLNFRNHRKIVIIDGKTGFVGGLNVGKEYISRDPYIGFWRDTHLRLEGEIVQTLHAIFMLDWEYVSNEVLIDQEEYNTPVPVEGGGIYQIVATGPDMKESMSDLYYEMISSAQKSIWIATPYFVPNESIRTALKAAATKGVEVRVMVPEKNDSFLTQYASRSYFPELLLEGIEVYSYQKGFMHQKVMIIDGDLASVGTANMDMRSFQLNFEVNVFFTDAEAIRTLEAHFEEDMQESEKLSPVGFYKRGVADR", "soluble on expression in E. coli": "not soluble"},
      {"sequence": "MVARISVGKNLYGALAYNQNKVDEGGAKVLSAHLLRYPEDGRFRPDESVRQFLEWMPNHYRTEKPVIHISLNPHPDDVLTDGQLAEIGREYMQRLGYGNQPYLVFKHEDIGRHHIHIVSLRVDSEGRKVSDKFEYRRSKEITELLEQKYGLHPAEGRKKGEEWQLKPVDVAKGDIKRQIACTLKPLLELYSFRTMGELRALLSLYNIGVEEVKGEIGGRTYHGILYTALDGNGETAATPIKSSRLGRTAGAQQLDRKMRESAARIKSAPCRERLRPLVADALRQSVDERDFRDRLAKEQIDLVLRRNGTDRIYGVTFIDHRSRTVLNGSRLGKEFSANMLNGHFQEQPPNSLSPLLPPVPSAVASGNGEKIPGGLLSDMEPELNYVPRYPKLLKPDKKKRRRRYGRQDLEHHHHHH", "soluble on expression in E. coli": "soluble"},
      {"sequence": "MSLSLLEVCADLCGQQTLSLFQSSPSVQQVSQTRDLQDIIGQQQGKRALEIAAAGNHNLLFLGPPGTGKTMLASRLCDLLPEMSDEEAMETASIASLTQQEINQHNWKLRPFRAPHHSSSMAALVGGGTIPRPGEISLAHNGLLFLDEMPEFERKVLDSLREPLESGEIVISRAQGKTRFPARFQLVGALNPSPTGYYEGSQARANPQSILRYLSRLSGPLLDRFDMSIEIPALPKGTLANGGDRGESTAAVRQRVWVARERMLARSGKVNALLQSREIEQYCPLLKADAEFLESALHRLGLSIRAYHRIIKVARTIADLQGEAQIARPHLAEALGYRAMDRLLKQLSAQNEGHHHHHH", "soluble on expression in E. coli": "not soluble"},
      {"sequence": "MKKSNIYIGEVIKQVIAEKQVTKAELARRLGVKPQSVDYLLTRKSIDTDTLYSLSLALDYDFAVLYSIKKEHALATDEESPFKVGNAKISLEIELRPDEMLKLNLKQKIADLLEGKGK", "soluble on expression in E. coli": "not soluble"},
      {"sequence": "GMTFEPYPFERLRALLKEITPKKRGLDLGIGEPQFETPKFIQDALKNHTHSLNIYPKSAFEESLRAAQRGFFKRRFKIELKENELISTLGSREVLFNFPSFVLFDYQNPTIAYPNPFYQIYEGAAKFIKAKSLLMPLTKENDFTPSLNEKELQEVDLVILNSPNNPTGRTLSLEELISWVKLALKHDFILINDECYSEIYENTPPPSLLEACMLAGNEAFKNVLVIHSLSKRSSAPGLRSGFIAGDSRLLEKYKAFRAYLGYTSANAIQKASEAAWLDDRHAEFFRNIYANNLKLARKIFKNTLIYPYSFYVYLPVQNGENFAKTLYQNEGIITLPALYLGRNRIGADYVRLALVYDTPLLEKPLEIIETYRENHA", "soluble on expression in E. coli": "soluble"},
      {"sequence": "MGSDKIHHHHHHMREVFQRLKQAILEKQDTMLLTIGTSSGSTPRSQGARMLVSAEGRIAGTVGGGAVEFQAEQVAKKLVLEKENAQRQFILAPNNIADLGMVCGGNVTIFFHYLSWETPFLKELCESIETHFQNNQQGWLVTELDQNNLGKVSFYSETGELIGSTSWEGELSLLPKGIHCEQKEDIIFLTEAILQVGKVYIFGSGHVARALVPILNYLSFYCVVVDDRPEFLTAQAFPQAEELRVIPLENLAAFIEITADDYGIVITRGHNFDFIVAKQLLETPAKYIGVMGSKHKIASQVRRLKEVGYTMTEIERIFMPIGLDIAAETPEELAISIAGELIQQRYQ", "soluble on expression in E. coli": "not soluble"},
      {"sequence": "PHDDSYWDRVLTHGKNCIKYTPNNAASLHNAIRLLNESPWMKVTMGLEALNVAQLYSAERCYMPIAQYLCSEHAPTSHHGAKARNNVKGYDHV", "soluble on expression in E. coli": "not soluble"},
      {"sequence": "MGSDKIHHHHHHMELKLERHPANPILEPSPYFLWESRFVFNPAVVYDGELFHLLYRAQGEDMVSRIGYAVSTDGIHFNKFEKPVFAPKSDDELYGVEDPRITKIGDEYYMVYTAYSPRGVRIAMASTKNFITWKRYGVVIPEVDNKDAALFPEKINGKYVMFHRIPPDMWLAFSDDLVHWDNFVKIASPRPGMWDDLKIGVGAPPIKTEYGWLVLYHGVQNTGTSRPIYRLGFMLLDLEDPTKVIKRSKEPILEPEEDWEKFGGVPNVVFSDAMIEYNGYYYVYYGAADNCIALATIPVEKVMKWCRE", "soluble on expression in E. coli": "not soluble"},
      {"sequence": "GSHMASRTPKKLSNIALTKETRQSSTDYNGFSRLAVDGNKNGDYGHHSVTHTKEDSPSWWEIDLAQTEELEKLIIYNRTDAEIQRLSNFDIIIYDSNDYEVFTQHIDSLESNNLSIDLKGLKGKKVRISLRSAGIPLSLAEVEVYTYK", "soluble on expression in E. coli": "soluble"},
      {"sequence": "HSHSDKHPVTWQPSKDGDRLIGRILLNKRLKDGSVPRDSGAMLGLKVVGGKMTESGRLCAFITKVKKGSLADTVGHLRPGDEVLEWNGRLLQGATFEEVYNIILESKPEPQVELVVSR", "soluble on expression in E. coli": "soluble"},
      {"sequence": "SADESDMRNELNDIQARADQLGDESLESTRRMLQLVEESKDAGIRTLVMLDEQGEQLERIEEGMDQINKDMKEAEKNLTDLGNLCGLCPCPCNKLKGGGQSWGNNQDGVVSSQPARVVDEREQMAISGGFIRRVTNDARENEMDENLEQVGSIIGNLRHMALDMGNEIDTQNRQIDRIMDMADSNKTRIDEANQRATKMLGSG", "soluble on expression in E. coli": "soluble"},
      {"sequence": "MEDFFSIGQIINTHGVRGELKIYPLTDDINRFDDLDSVYVDNEIKKVISVKKQPNKLILKLEGIDTLDEAVKYKNKYIKVLREDAVELKEGQYFIKDIIGCNVFDENDKDLGEVYDVISTKNNDVYCIRKEGQQDILVPALKDIVLKIEIENKKIVIKAVEEWLESLEHHHHHH", "soluble on expression in E. coli": "soluble"},
      {"sequence": "MGSDKIHHHHHHMNIQQLRYVVAIANSGTFREAAAKLFVSQPSLSVAVRDLETELGFQIFTRTTTGAVLTNQGMTFYENALEVVKSFDSFEKQFSQSEATEQEFSIASQHYDFLPPLITAFSKCNDNFSYFRIFESTTIRILDEVAQGNSEIGIIYINSQNKKGLLQRLDKLGLEFVELIPFKTHIYLGKDHPLASKTSLIMTDLEGLPTVRFTQDRDDYRYYSENFVEVLDSSVTYNVTDRATLNGILERTQAYATGSGFLDSRSVNGITVIPLEDHLDNQMIYIKRKDRNLSQMALKFVAVMEEYFKGFNS", "soluble on expression in E. coli": "not soluble"}
    ]}
  ]
}
